Measurements from patent publication US20240307512A1.

Legend:
[1] = target: SARS-COV-2 Spike Omicron BA.1 (on pVSV-Luc-SARS-COV-2-S pseudovirus) (SARS-COV-2) (UniProt P0DTC2)
[2] = target: SARS-COV-2 Spike Omicron BA.2 (on pVSV-Luc-SARS-COV-2-S pseudovirus) (SARS-COV-2) (UniProt P0DTC2)

ACE2 v2.4 (615)-Fc (IgG) (from UniProt Q9BYF1) (Fc fusion)
IC50 (read off the curve) [1]: 20 pM
IC50 (read off the curve) [2]: 40 pM
